Here are results for 83 variants from the RNAGym collection of RNA variant scans (doi:10.1073/pnas.2313332121).

The chains are these.
B1: TPR t1 (parent)
chain: GACCAAUCUGCCCUCAGAGCUCGAGAACAUCUUCGGAUGCAGAGGAGGCAGGCUUCGGUGGCGCGAUAGCGCCAACGUCCUCAACCUCCAAUGCAUCCCACCACAUGAUGAUGCCUGAAGAGCCUUGGUUUUUUG

In the data set the parent is B1. Description: polymerase ribozyme fitness, log enrichment relative to wild type (log ratio); higher = more active; in vitro selection for triplet polymerase activity. The gist of the method: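 Mutant libraries of both subunits of a heterodimeric triplet polymerase ribozyme were PCR-built, transcribed, and selected once in triplicate, with frozen incubation at −7 °C and capture of gel-excised extended constructs on streptavidin beads before RT-PCR. Illumina sequencing of input and output libraries was filtered to genotypes with ≥10 input reads and ≥1 read per output. Fitness is the logarithm of genotype enrichment over wild-type enrichment, using inverse-variance-weighted replicate averages. The logarithm is base 2.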
In the case of C8A C53G C70U C97U U112A C124U, the “polymerase ribozyme fitness (log ratio)” value came out at 0.47. In the case of C8A A83G C104U U129A it was -2.16; in that of U7G A27G G48C, -0.78.

With C8A C12U C40U C86U, the “polymerase ribozyme fitness (log ratio)” value was -0.152. In the case of U7G C70U A105G it was -3.6.

As for U7G G17A G39A U55A G61A C82G C115A U130C, the “polymerase ribozyme fitness (log ratio)” value was -1.97. Consider U7G C49A, for which the “polymerase ribozyme fitness (log ratio)” value was 0.309. The result for C8A A103G G110U reads -5.33; that for U7C G48U C53U G77A U81A U96C G120C, -2; that for U7G C76U, 0.285.

For U7C G69A C88A, the “polymerase ribozyme fitness (log ratio)” value is -2.92. The result for U7G C70A A100U reads -2.41; that for C8A A91G, -0.00436. As to U7C C34A, the “polymerase ribozyme fitness (log ratio)” value is -2.72. In the case of U7G U38G U54C C56U G110A G122U it was -3.58; in that of U7C G61C, -1.87; in that of U7G C64U C73G C89A C104U A119U, -6.4.

On to U7G G52U, for which the “polymerase ribozyme fitness (log ratio)” value was -0.337.

Take C8A A37U C124A: the “polymerase ribozyme fitness (log ratio)” value was 1.28. The result for U7C C22U C64U C88U C123U reads -2.65; that for U7G C13G C40U, 0.145; that for C8A A50C U92C, -1.6. Turning to C8A C56A C72G, the “polymerase ribozyme fitness (log ratio)” value was -1.07. The result for U7C C40G A95U C102A reads -5.2; that for U7C C28A U78A C123U, -3. For the variant U7C G48C C70U, the “polymerase ribozyme fitness (log ratio)” value is -0.869. In the case of U7C G60A C89G U130G it was -1.83; in that of U7G C31G U38A G69A C80U C101G G120A, -7.18.

For the variant C8A C40U A90C, the “polymerase ribozyme fitness (log ratio)” value was -0.703. Take U7G G19U G42A G61A: the “polymerase ribozyme fitness (log ratio)” value was -2.64. Take U7G G10U C15A U54A C104A: the “polymerase ribozyme fitness (log ratio)” value is -3.26.

Regarding U7C C124G, the “polymerase ribozyme fitness (log ratio)” value was 1.82. Consider U7C C40U C98A A121C, for which the “polymerase ribozyme fitness (log ratio)” value was -3.62.

With U7C G44U, the “polymerase ribozyme fitness (log ratio)” value was -0.497.

For the variant C8A C20G G61A, the “polymerase ribozyme fitness (log ratio)” value is -4.4. In the case of U7G C11U C97U it was 0.101; in that of U7G C40G C56U G69U, -2.3. On to C8A A18U G45C A75U U109A, for which the “polymerase ribozyme fitness (log ratio)” value is -6.43. The result for U7C G77C reads -0.0984; that for U7C U131A, 0.00611; that for U7G U9A G60U C82U, 0.122. Consider U7G G42C G45A G61C, for which the “polymerase ribozyme fitness (log ratio)” value was -3.42.

As for C8A A46U G61A G117C, the “polymerase ribozyme fitness (log ratio)” value is -2.38.

For the variant C8A C28G C102A U109A, the “polymerase ribozyme fitness (log ratio)” value is -4.85. The result for U7G U14C A29G G42U U59A C123U reads -3.3. As for U7G A16G A18C G117U, the “polymerase ribozyme fitness (log ratio)” value was -0.355. In the case of U7C G135U it was -0.566; in that of U7G C70U, -0.201.

Regarding C8A C12U, the “polymerase ribozyme fitness (log ratio)” value was -0.964. In the case of C8A C12A it was 0.497. Turning to U7G C124U, the “polymerase ribozyme fitness (log ratio)” value was found to be 1.55. The result for C8A A26U A46C C56U reads -2.74. The result for U7C U116C reads 0.603; that for C8A A18G C115A, -4.82; that for U7G C70U C102A, -2.24. Consider U7C U14G G48U, for which the “polymerase ribozyme fitness (log ratio)” value is -2.35.

Take U7G C15G C88G U96A A108G C124A: the “polymerase ribozyme fitness (log ratio)” value was -5.93.

For the variant U7C G17U G35C U96A C97U U112A, the “polymerase ribozyme fitness (log ratio)” value was -6.44. In the case of C8A A16C G47A C70U G110A U131A it was -3.91. The result for C8A C28G C53A U106G reads -3.51. As for U7C C12U U106A C115U G127U, the “polymerase ribozyme fitness (log ratio)” value is -1.03. U7G A50U G117C: the “polymerase ribozyme fitness (log ratio)” value is -3.6.

On to U7G G10C G45U C62A C115U, for which the “polymerase ribozyme fitness (log ratio)” value was -3.58. For the variant U7G A18G C20A A43G C72G, the “polymerase ribozyme fitness (log ratio)” value was -5.03. The result for C8A C49A reads 0.247; that for C8A C13G, -0.0841; that for U7C C40A U109A U129A, -6.42. U7C C40A: the “polymerase ribozyme fitness (log ratio)” value is -0.659. The result for U7C G17A A41G G52U reads -3.17. The result for U7G A74G reads -0.0909; that for C8A A16C G39U C102A, -4.53; that for U7C C64U A100U, -0.384. U7G U133A: the “polymerase ribozyme fitness (log ratio)” value worked out at 0.128. The result for C8A C15G C40A U54G A90G reads -2.34; that for C8A A24G G113A, -3.12. In the case of C8A C56U A83U G93A it was 0.0132; in that of U7G G10C G45A G47A U59G A66C G77A, -2.15. The result for C8A C15A A29U G42U reads -3.65.

As for U7G C31U, the “polymerase ribozyme fitness (log ratio)” value is -3.68. In the case of C8A A37U C86U, the “polymerase ribozyme fitness (log ratio)” value was -0.337.

U7G G63A: the “polymerase ribozyme fitness (log ratio)” value was determined as 0.0919.

Take U7G A37U G47U U67G C70U: the “polymerase ribozyme fitness (log ratio)” value is -7.04. The result for C8A C11G A16U A43C U78C U125A reads -1.72.
